Data as given in US20160222124A1 (published 2016).
One block for each binder: values may come before it.

Tests used:
[1] = biological target: T1, human CD40 (cellular) (human, UniProt P25942 21-277); experiment: flow cytometry; CD40-transfected HEK-293 cells
[2] = biological target: T1, human CD40 (cellular); experiment: flow cytometry; RAMOS cells; humanized per legend
Target sequence in this assay (P25942 21-277): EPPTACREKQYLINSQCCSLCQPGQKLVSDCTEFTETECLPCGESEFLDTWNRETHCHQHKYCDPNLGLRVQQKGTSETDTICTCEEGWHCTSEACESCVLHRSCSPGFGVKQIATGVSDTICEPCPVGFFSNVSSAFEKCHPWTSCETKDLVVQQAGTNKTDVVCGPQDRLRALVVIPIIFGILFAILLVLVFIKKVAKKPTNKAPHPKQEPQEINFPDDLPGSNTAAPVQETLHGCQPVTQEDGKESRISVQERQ

[3] = biological target: T2, B cells Cynomolgus (cynomolgus monkey, UniProt G7PG38 21-278); experiment: flow cytometry, whole blood; cynomolgus B cells
T2 chain: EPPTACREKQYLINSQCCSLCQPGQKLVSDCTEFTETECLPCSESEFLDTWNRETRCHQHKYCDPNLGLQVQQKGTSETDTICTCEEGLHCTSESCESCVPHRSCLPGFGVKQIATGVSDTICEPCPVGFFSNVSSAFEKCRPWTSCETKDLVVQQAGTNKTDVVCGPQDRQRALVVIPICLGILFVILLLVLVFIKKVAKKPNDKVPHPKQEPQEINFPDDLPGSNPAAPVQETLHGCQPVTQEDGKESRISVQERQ

[4] = biological target: Platelets Human (human, UniProt P25942 21-277); experiment: flow cytometry, whole blood; human platelets
[5] = biological target: B cells Human (human, UniProt P25942 21-277); experiment: flow cytometry, whole blood; human B cells
[6] = biological target: T3, Platelets Cynomolgus (cynomolgus monkey, UniProt G7PG38 21-278); experiment: flow cytometry, whole blood; cynomolgus platelets
T3 chain: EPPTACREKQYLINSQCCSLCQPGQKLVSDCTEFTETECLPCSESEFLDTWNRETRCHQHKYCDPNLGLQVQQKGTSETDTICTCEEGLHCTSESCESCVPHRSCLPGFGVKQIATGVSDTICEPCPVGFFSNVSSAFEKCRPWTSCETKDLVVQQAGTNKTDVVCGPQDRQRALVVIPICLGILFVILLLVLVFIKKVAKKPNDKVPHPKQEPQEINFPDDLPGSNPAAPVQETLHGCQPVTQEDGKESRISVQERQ

[7] = biological target: T1, human CD40 (cellular); experiment: flow cytometry; CD40-transfected HEK-293 cells; humanized 19B10
[8] = biological target: T1, human CD40 (cellular); experiment: flow cytometry; CD40-transfected HEK-293 cells; humanized 10F2

EC50 [1]: 1900 pM
B1: Antibody C (antibody, V domains shown)
VH: QVQLVQSGAEVKKPGASVKVSCTASGFNIKDYYVHWVKQAPGQGLEWMGRIDPEDGDSKYAPKFQGKATMTADTSTSTVYMELSSLRSEDTAVYYCTTSYYVGTYGYWGQGTLVTVSS
VL: DIQMTQSPSSLSASVGDRVTITCSASSSVSYMLWFQQKPGKAPKLLIYSTSNLASGVPSRFSGSGSGTDFTLTISSLQPEDFATYYCQQRTFYPYTFGGGTKVEIKR

EC50 [1]: 1100 pM
B2: Antibody A (antibody, V domains shown)
VH: EVQLVESGGGLVKPGGSLRLSCAASGFTFSDYGMHWVRQAPGKGLEWVAYISSGNRIIYYADTVKGRFTISRDNAKNSLYLQMNSLRAEDTALYYCARQDGYRYAMDYWAQGTLVTVSS
VL: DIVMTQSPDSLAVSLGERATMSCKSSQSLLNSGNQKNYLTWHQQKPGQPPKLLIYWTSTRESGVPDRFSGSGSGTDFTLTISSLQAEDVAVYYCQNDYTYPLTFGGGTKVEIKR

EC50 [2]: 1220 pM
B3: 20E2 (antibody, V domains shown)
VH: EVQLVESGGGLVKPGGSRKLSCAASGFTFSDYGMHWVRQAPEKGLEWVAYISSGNRIIYYADTVKGRFTISRDNAKNTLFLQMTSLRSEDTALYYCARQDGYRYAMDYWGQGTSVTVSS
VL: DIVMTQSPSSLTVTAGEKVTMSCKSSQSLLNSGNQKNYLTWHQQKPGQPPKLLIYWTSTRESGVPDRFTGSGSGTDFTLTISNLQAEDLAVYYCQNDYTYPLTFGAGTKLELK

EC50 [7]: 1100 pM | EC50 [2]: 360 pM
B5: 19B10 (antibody, V domains shown)
VH: EVQLQQSGAELVRPGASVQLSCTASGFNIKDYYVHWVKQRPEKGLEWIGRIDPEDGDTKFAPKFQGKATMTADTSSNTVYLHLSSLTSEDTAVYYCTTSYYVGTYGYWGQGTTLTVSS
VL: QIVLTQSPAIMSASPGEKVTITCSASSSVSYMLWFQQKPGTSPKLWIYSTSNLASGVPARFSGSGSGTSYSLTISRMEAEDAATYYCQQRTFYPYTFGGGTKLEIK

The remaining lines, values behind:

B4: 4D11 (antibody, V domains shown)
VH: QLQLQESGPGLLKPSETLSLTCTVSGGSISSPGYYGGWIRQPPGKGLEWIGSIYKSGSTYHNPSLKSRVTISVDTSKNQFSLKLSSVTAADTAVYYCTRPVVRYFGWFDPWGQGTLVTVSS
VL: AIQLTQSPSSLSASVGDRVTITCRASQGISSALAWYQQKPGKAPKLLIYDASNLESGVPSRFSGSGSGTDFTLTISSLQPEDFATYYCQQFNSYPTFGQGTKVEIK
EC50 [3]: 700 pM | EC50 [4]: 700 pM | EC50 [5]: 300 pM | EC50 [6]: 1200 pM

B6: 2H11 (antibody, V domains shown)
VH: EVQLQQSGAELVRPGASVKLSCTASGFNIKDYYVHWVKQRPEKGLEWIGRIDPEDGDSKYAPKFQGKATMTADTSSNTAYLHLSSLTSEDTAVYYCTTSYYVGTYGYWGQGTTLTVSS
VL: QIVLTQSPAIMSASPGEKVTITCSASSSVSYMLWFQQKPGTSPKLWIYSTSNLASGVPARFGGSGSGTSYSLTISRMEAEDAATYYCQQRTFYPYTFGGGTKLEIK
EC50 [2]: 320 pM

B7: 10F2 (antibody, V domains shown)
VH: EVQLQQSGAELVRPGASVKLSCTASGFNIKDYYIHWVKQRPEKGLEWIGRIDPEDGDTKYDPKFQGKATMTADTSSNTAYLHLSSLTSEDTAVYYCTTSYYVGTYGYWGQGTTLTVSS
VL: QIVLTQSPTIMSASPGEKVIITCSATSSVSYILWFQQKPGTSPKLWIYSTSNLASGVPARFSGSGSGASYSLTISRMEAEDAATYYCQQRTFYPYTFGGGTKLEIK
EC50 [8]: 1900 pM | EC50 [2]: 210 pM
